B1: … (residues 93-101 of HPV16 protein E6) (peptide)
peptide: TTLEQQYNK
modifications: not checked
B2: … (residues 89-97 of HPV16 protein E6) (peptide)
peptide: SLYGTTLEQ
modifications: not checked
B3: … (residues 42-50 of HPV16 protein E6) (peptide)
peptide: QQLLRREVY
modifications: not checked
B4: … (residues 7-15 of HPV16 protein E6) (peptide)
peptide: AMFQDPQER
modifications: not checked
B5: … (residues 59-67 of HPV16 protein E6) (peptide)
peptide: IVYRDGNPY
modifications: not checked
B6: … (residues 125-133 of HPV16 protein E6) (peptide)
peptide: HLDKKQRFH
modifications: not checked
B7: … (residues 49-57 of HPV16 protein E7) (peptide)
peptide: RAHYNIVTF
modifications: not checked
B8: … (residues 1-9 of HPV16 protein E6) (peptide)
peptide: MHQKRTAMF
modifications: not checked
B9: … (residues 44-52 of HPV16 protein E6) (peptide)
peptide: LLRREVYDF
modifications: not checked
B10: … (residues 49-57 of HPV16 protein E6) (peptide)
peptide: VYDFAFRDL
modifications: not checked
B11: … (residues 131-139 of HPV16 protein E6) (peptide)
peptide: RFHNIRGRW
modifications: not checked
B12: … (residues 24-32 of HPV18 protein E6) (peptide)
peptide: SLQDIEITC
modifications: not checked
B13: … (residues 47-55 of HPV18 protein E6) (peptide)
peptide: FAFKDLFVV
modifications: not checked
B14: … (residues 102-110 of HPV16 protein E6) (peptide)
peptide: PLCDLLIRC
modifications: not checked
B15: … (residues 79-87 of HPV16 protein E6) (peptide)
peptide: KISEYRHYC
modifications: not checked
B16: … (residues 94-102 of HPV18 protein E7) (peptide)
peptide: LSFVCPWCA
modifications: not checked
B17: … (residues 86-94 of HPV18 protein E7) (peptide)
peptide: FQQLFLNTL
modifications: not checked
B18: … (residues 66-74 of HPV16 protein E7) (peptide)
peptide: RLCVQSTHV
modifications: not checked
B19: … (residues 36-44 of HPV18 protein E6) (peptide)
peptide: KTVLELTEV
modifications: not checked
B20: … (residues 78-86 of HPV16 protein E7) (peptide)
peptide: TLEDLLMGT
modifications: not checked
B21: … (residues 22-30 of HPV16 protein E6) (peptide)
peptide: LCTELQTTI
modifications: not checked
B22: … (residues 93-101 of HPV18 protein E6) (peptide)
peptide: LTNTGLYNL
modifications: not checked
B23: … (residues 85-93 of HPV16 protein E7) (peptide)
peptide: GTLGIVCPI
modifications: not checked
B24: … (residues 88-96 of HPV18 protein E6) (peptide)
peptide: DTLEKLTNT
modifications: not checked
B25: … (residues 29-37 of HPV16 protein E6) (peptide)
peptide: TIHDIILEC
modifications: not checked
B26: … (residues 88-96 of HPV18 protein E7) (peptide)
peptide: QLFLNTLSF
modifications: not checked
B27: … (residues 89-97 of HPV18 protein E7) (peptide)
peptide: LFLNTLSFV
modifications: not checked
B28: … (residues 30-38 of HPV16 protein E6) (peptide)
peptide: IHDIILECV
modifications: not checked
B29: … (residues 11-19 of HPV16 protein E7) (peptide)
peptide: YMLDLQPET
modifications: not checked
B30: … (residues 12-20 of HPV16 protein E7) (peptide)
peptide: MLDLQPETT
modifications: not checked
B31: … (residues 29-37 of HPV18 protein E6) (peptide)
peptide: EITCVYCKT
modifications: not checked
B32: … (residues 21-29 of HPV16 protein E6) (peptide)
peptide: QLCTELQTT
modifications: not checked
B33: … (residues 40-48 of HPV18 protein E6) (peptide)
peptide: ELTEVFEFA
modifications: not checked
B34: … (residues 37-45 of HPV16 protein E6) (peptide)
peptide: CVYCKQQLL
modifications: not checked
B35: … (residues 13-21 of HPV18 protein E6) (peptide)
peptide: KLPDLCTEL
modifications: not checked
B36: probe peptide … for A3.2 (peptide)
peptide: KVFPYALINK
modifications: not checked
B37: … (residues 75-83 of HPV16 protein E6) (peptide)
peptide: KFYSKISEY
modifications: not checked
B38: … (residues 37-45 of HPV16 protein E7) (peptide)
peptide: EIDGPAGQA
modifications: not checked
B39: … (residues 61-69 of HPV16 protein E6) (peptide)
peptide: YRDGNPYAV
modifications: not checked
B40: … (residues 73-81 of HPV16 protein E7) (peptide)
peptide: HVDIRTLED
modifications: not checked

One test concerns the target T1, HLA-A3.2 molecules isolated from the EBV transformed cell line GM3107 (human). Put plainly: competition with radiolabeled probe [..], purified HLA-A3.2; IC50 standard / IC50 peptide.
Details: not given
For B1, the binding ratio to standard stood at 0.078. On the same count and under the same terms, with B2 the figure was 0.008; with B3, 0.0058.

The test is the same for the next values; noted with them: remark: other sources report otherwise.
B4: the binding ratio to standard was 0.1. On the same count and under the same terms, to B5 belongs 3; to B6, 0.44.

The next test addresses HLA-A11.2 molecules isolated from the cell line BVR (human). Put plainly: competition with radiolabeled probe [..], purified HLA-A11.2; IC50 standard / IC50 peptide.
Details: not given
On to B3, for which the binding ratio to standard stood at 0.0084.

Still in this test, the particulars now being: remark: other sources report otherwise.
Turning to B4, the binding ratio to standard turned out to be 0.84. The same measure, in the same setting: to B5 belongs 0.47.

Another test deals with HLA-A24 molecules isolated from the EBV transformed cell line KT3 (human). Put plainly: competition with radiolabeled probe [..], purified HLA-A24; IC50 standard / IC50 peptide.
Details: not given
Regarding B7, the binding ratio to standard is 0.067. Still for that read-out and setting: to B8 belongs 0.0049; to B9, 0.0023. Same read-out and setting: to B10 belongs 0.061; to B11, 0.1.

In a further test the target is HLA-A2.1 molecules expressed by 174CEM.T2 cells (human). Put plainly: T2 HLA-A2.1 stabilisation, flow cytometry (BB7.2), peptide 200 ug/ml.
Details: not given
(Flow cytometry measures light scatter and fluorescence of single cells or particles in a stream.)
For the molecule B12, the FI (Fluorescence Index) was determined as 0.7 and the MF (mean fluorescence) amounted to 244.

B13 registered an FI (Fluorescence Index) of 2.3 and an MF (mean fluorescence) of 463. Taken in the same sequence, the figures for B14 were 2.1 and 205.

As to B15, the FI (Fluorescence Index) was 2.2 and the MF (mean fluorescence) is 212.

With B16, the FI (Fluorescence Index) was 0.9 and the MF (mean fluorescence) was 262. On the same counts, the results for B17 are 0.8 and 244. The molecule B18 gave an FI (Fluorescence Index) of 2.8 and an MF (mean fluorescence) of 250. On the same counts, the results for B19 are 2.3 and 468. On the same counts, the results for B20 are 1.8 and 183. Molecule B21 registered an FI (Fluorescence Index) of 0.7 and an MF (mean fluorescence) of 114. On the same counts, the results for B22 are 1.5 and 352. Taken in the same sequence, the figures for B23 were 2.3 and 216.

In turn, B24 displayed an FI (Fluorescence Index) of 0.7 and an MF (mean fluorescence) of 238. Taken in the same sequence, the figures for B25 were 1.8 and 184. Consider B26, for which the FI (Fluorescence Index) turned out to be 0.8 and the MF (mean fluorescence) turned out to be 258. Taken in the same sequence, the figures for B27 were 1.6 and 360. On the same counts, the results for B28 are 1.3 and 151.

B29: the FI (Fluorescence Index) turned out to be 3.3 and the MF (mean fluorescence) was 284.

In turn, B30 displayed an FI (Fluorescence Index) of 2.3 and an MF (mean fluorescence) of 218.

The same test, now with this note: remark: other sources report otherwise.
Regarding B31, the FI (Fluorescence Index) was 0.5 and the MF (mean fluorescence) came to 206. On the same counts, the results for B32 are 2.2 and 212.

On to B33, for which the FI (Fluorescence Index) came to 1.1 and the MF (mean fluorescence) was 289. On the same counts, the results for B34 are 2 and 195. Taken in the same sequence, the figures for B35 were 2.1 and 439.

The target in another test is T1, HLA-A3.2 molecules isolated from the ….
Assay: not given
Details: not given
Consider B36, for which the IC50 – broadly, the concentration that inhibits the measured activity by half – was 30 nM.

Staying with this test, now noted: remark: other sources report otherwise.
As for B37, the binding ratio to standard stood at 0.01.

Another test addresses HLA-A1 molecules isolated from the EBV transformed cell line Steinlin (human). Put plainly: competition with radiolabeled probe [..], purified HLA-A1; IC50 standard / IC50 peptide.
Details: not given
As for B38, the binding ratio to standard amounted to 0.025. Same read-out and setting: with B39 the figure was 0.008; with B40, 0.014.
